Earlier results on one molecule are cited in US20160114039A1, “TREATMENT OF POLYPOIDAL CHOROIDAL VASCULOPATHY” (BAYER HEALTHCARE LLC, priority 2013, published 2016).

The series has as its system symptomatic PCV. To be noted: sixty-one Asian patients with symptomatic PCV; primary end point assessed at month 6.

B1: ranibizumab (antibody, chains of the INN, looked up, V domains shown)
VH: EVQLVESGGGLVQPGGSLRLSCAASGYDFTHYGMNWVRQAPGKGLEWVGWINTYTGEPTYAADFKRRFTFSLDTSKSTAYLQMNSLRAEDTAVYYCAKYPYYYGTSHWYFDVWGQGTLVTVSS
VL: DIQLTQSPSSLSASVGDRVTITCSASQDISNYLNWYQQKPGKAPKVLIYFTSSLHSGVPSRFSGSGSGTDFTLTISSLQPEDFATYYCQQYSTVPWTFGQGTKVEIK
modifications: Fab
notes: anti-VEGF agent ranibizumab (Lucentis)
In the case of B1, the complete polyp regression is 28.6%.
